The data set concerns the molecule itself. Description: cryo-EM structure; blot-and-plunge, dGTPase 3 mg/mL on UltrAuFoil R1.2/1.3 Au300; single-particle analysis, D3 symmetry.

B1: Escherichia coli dGTP Triphosphohydrolase (enzyme, UniProt P15723 1-505, looked up)
chain: MAQIDFRKKINWHRRYRSPQGVKTEHEILRIFESDRGRIINSPAIRRLQQKTQVFPLERNAAVRTRLTHSMEVQQVGRYIAKEILSRLKELKLLEAYGLDELTGPFESIVEMSCLMHDIGNPPFGHFGEAAINDWFRQRLHPEDAESQPLTDDRCSVAALRLRDGEEPLNELRRKIRQDLCHFEGNAQGIRLVHTLMRMNLTWAQVGGILKYTRPAWWRGETPETHHYLMKKPGYYLSEEAYIARLRKELNLALYSRFPLTWIMEAADDISYCVADLEDAVEKRIFTVEQLYHHLHEAWGQHEKGSLFSLVVENAWEKSRSNSLSRSTEDQFFMYLRVNTLNKLVPYAAQRFIDNLPAIFAGTFNHALLEDASECSDLLKLYKNVAVKHVFSHPDVERLELQGYRVISGLLEIYRPLLSLSLSDFTELVEKERVKRFPIESRLFHKLSTRHRLAYVEAVSKLPSDSPEFPLWEYYYRCRLLQDYISGMTDLYAWDEYRRLMAVEQ
notes: also called dGTPase; E. coli dGTPase
As to B1, the binding result is on record as “binds”.

These data come from doi:10.1101/2025.07.24.666634 (bioRxiv, 2025).
